Measurements as given in paper PMC6134095 (2018).

B1: FtsB (22–103), periplasmic domain of E. coli FtsB (domain or fragment)
chain: GKNGIHDYTRVNDDVAAQQATNAKLKARNDQLFAEIDDLNGGQEALEERARNELSMTRPGETFYRLVPDASKRAQSAGQNNR
B2: FtsN (58–320) plus FtsB (22–103), bound together (other)
chain 1: B1 chain
chain 2: HKKEESETLQSQKVTGNGLPPKPEERWRYIKELESRQPGVRAPTEPSAGGEVKTPEQLTPEQRQLLEQMQADMRQQPTQLVEVPWNEQTPEQRQQTLQRQRQAQQLAEQQRLAQQSRTTEQSWQQQTRTSQAAPVQAQPRQSKPASSQQPYQDLLQTPAHTTAQSKPQQAAPVARAADAPKPTAEKKDERRWMVQCGSFRGAEQAETVRAQLAFEGFDSKITTNNGWNRVVIGPVKGKENADSTLNRLKMAGHTNCIRLAAGG
B3: FtsN (57–319), periplasmic domain of E. coli FtsN (domain or fragment)
chain: B2 chain 2

Key:
[1] = target: T1, FtsQ (58–276), periplasmic domain of E. coli FtsQ (Escherichia coli strain K-12, UniProt P06136 58-276); assay: SPR; minor phase
[2] = target: T1, FtsQ (58–276), periplasmic domain of E. …; assay: SPR; major phase
[3] = target: T1, FtsQ (58–276), periplasmic domain of E. …; assay: SPR; minor phase; remark: listed apart in the source
[4] = target: T1, FtsQ (58–276), periplasmic domain of E. …; assay: SPR

T1 sequence (P06136 58-276): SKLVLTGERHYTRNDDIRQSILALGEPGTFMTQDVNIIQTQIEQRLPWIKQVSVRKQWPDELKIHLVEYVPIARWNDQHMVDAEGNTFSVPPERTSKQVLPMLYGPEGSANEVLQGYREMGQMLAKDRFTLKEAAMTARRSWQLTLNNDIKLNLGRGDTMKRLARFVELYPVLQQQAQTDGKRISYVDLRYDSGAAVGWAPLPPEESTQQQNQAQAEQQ

| Binder | Kd [1] | koff [2] | koff [3] | koff [4] |
| --- | --- | --- | --- | --- |
| B1 | 11 µM | 0.00021 s⁻¹ | 0.031 s⁻¹ |  |
| B2 | 5.6 µM | 8.3e-05 s⁻¹ | 0.03 s⁻¹ |  |
| B3 |  |  |  | 0.076 s⁻¹ |
